Where a chain is given by its changes, count along the chain named. In names and notes the source's numbering stands. Read-outs that look alike come from different tables or passages of the source.
B1: HER3-ECD^I-II (residues 20-329), recombinant domains I and II of HER3 expressed in Drosophila S2 cells (receptor, not shown: small tags and cut ends)
chain: SEVGNSQAVCPGTLNGLSVTGDAENQYQTLYKLYERCEVVMGNLEIVLTGHNADLSFLQWIREVTGYVLVAMNEFSTLPLPNLRVVRGTQVYDGKFAIFVMLNYNTNSSHALRQLRLTQLTEILSGGVYIEKNDKLCHMDTIDWRDIVRDRDAEIVVKDNGRSCPPCHEVCKGRCWGPGSEDCQTLTKTICAPQCNGHCFGPNPNQCCHDECAGGCSGPQDTDCFACRHFNDSGACVPRCPQPLVYNKLTFQLEPNPHTKYQYGGVCVASCPHNFVVDQTSCVRACPPDKMEVDKNGLKMCEPCGGLCPK
notes: Monomer by light scattering and ultracentrifugation; The N-terminal Drosophila leader comes from the vector; the protein is secreted; also called HER3^I-II; H3 I-II
B2: HER3^I-II N44A (receptor, not shown: small tags and cut ends)
chain: B1 chain with N25A
notes: also called H3 I-II Mutant N44A
B3: trx-hrg, thioredoxin-heregulin fusion with a C-terminal His and S-tag (ligand)
chain: SHLVKCAEKEKTFCVNGGECFMVKDLSNPSRYLCKCPNEFTGDRCQNYVMASFYKHLGIEF
notes: Made as in Landgraf et al. 1998; also called S-tagged hrg; immobilized hrg; not shown: thioredoxin; C-terminal His tag and S-tag
B4: HER3^I-II V110A (receptor, not shown: small tags and cut ends)
chain: B1 chain with V91A
notes: also called H3^I-II V110A
B5: hrg, 60-residue EGF-like domain of human heregulin beta1 (residues 177-237) (ligand)
chain: B3 chain
notes: also called I^25 hrg

Key:
[1] = target: B3; assay: SPR, trx-hrg immobilized (68 nM) compared with HER3-ECD^I-IV (2.3 nM)
Description: (§1) Trx-hrg (13 μM) in MES buffer (100 mM pH 6.0) was immobilized on a BIAcore CM5 chip using standard N-hydroxysuccinimide/1-ethyl-3-(3-dimethylaminopropyl)carbodiimide amine-coupling chemistry. The surface of the chip was blocked with ethanolamine and could be regenerated with 5.0 M NaCl and washes with running buffer (PBS+surfactant). HER3-ECD^I-II (filtered through a 0.1-μm filter unit (Millipore, Bedford, Mass.)) in running buffer was applied to the chip at various concentrations (in triplicate) to determine the dissociation constant. Data were analyzed with the BIAevaluation software. Competition experiments were carried out using hrg at an equimolar concentration to HER3-ECD^I-II.
(§2) To further confirm that HER3-ECD^I-II binds hrg, we analyzed the interaction by SPR (BIAcore). Trx-hrg fusion protein was immobilized on a BIAcore chip for these measurements. […] This interaction could be inhibited by stoichiometric concentrations of hrg.

[2] = target: B3; assay: SPR (BIAcore), immobilized trx-hrg
HER3^I-II K51A = target: T1, HER3^I-II K51A (human, UniProt P21860 20-329); assay: SPR (BIAcore), immobilized trx-hrg
T1 construct: also called H3^I-II K51A

HER3^I-II V66A = HER3^I-II V66A (human, UniProt P21860 20-329); assay: SPR (BIAcore), immobilized trx-hrg
HER3^I-II V110A = target: B4; assay: SPR (BIAcore), immobilized trx-hrg
HER3^I-II E43A = target: T2, HER3^I-II E43A (human, UniProt P21860 20-329); assay: SPR (BIAcore), immobilized trx-hrg
T2 construct: also called H3 I-II Mutant E43A

HER3^I-II N44A = target: B2; assay: SPR (BIAcore), immobilized trx-hrg
HER3^I-IV E64A [3] = target: T3, HER3^I-IV E64A (human, UniProt P21860 20-643); assay: pull-down on trx-hrg-coupled S-protein agarose
T3 construct: also called H3^I-IV E64A
Description: (§3) FIG. 12. […] HER3^I-IV and the HER3^I-IV mutants were analyzed on a native Phast gel (10-15%) in the absence (−) and presence (+) of equimolar hrg. The HER3^{I-IV E64A} was also analyzed in the absence (lane 2) and presence (lane 4) of hrg. Formation of a hrg-HER3^I-IV complex is observed with HER3^I-IV, but not with […], B, HER3^I-IV and HER3^{I-IV E64A} were analyzed in a “pull down assay” in which S-tagged hrg was immobilized on S-protein resin (lanes 4-9) and HER3^I-IV could be specifically eluted with 1 μM hrg and detergent (lane 6 and 8), but HER3^{I-IV E64A} could not be eluted with PBS or 1 μM hrg (lanes 5 and 7). A small amount of HER3^{I-IV E64A} could be eluted with detergent (lane 9) which was probably due to some binding or non-specific interaction.
To confirm that HER3^I-IVE64A has decreased binding affinity for hrg, we used a “pull down” assay in which we measured the HER3^I-IV and HER3^I-IVE64A that could be dissociated from immobilized thioredoxin-heregulin (trx-hrg) by the addition of hrg. Using trx-hrg coupled S-protein agarose, HER3^I-IV was eluted with hrg and detergent (FIG. 12B, lanes 6 and 8), but not with PBS (FIG. 12B, lane 4). No HER3^{I-IV E64A} could be recovered by elution with PBS, hrg or detergent (FIG. 12B, lanes 5, 7 and 9).

[4] = target: B1; assay: SPR (BIAcore), trx-hrg immobilized, HER3-ECD^I-II in solution
Description: as §1, §2

[5] = target: B3; assay: SPR (BIAcore), immobilized trx-hrg
HER3^I-IV E64A [6] = target: T3, HER3^I-IV E64A; assay: native gel mobility shift
Description: as §3
To determine the effects of cleavage of HER3^I-IV on its ability to bind hrg, a gel mobility shift assay was performed. […] (FIG. 12A).

[7] = target: T4, HER3-ECD^I-IV, soluble extracellular domains of recombinant HER3 purified from Chinese hamster ovary cells (human, UniProt P21860 20-643); assay: method not given; compared with the Kd of HER3-ECD^I-II (68 nM); form of hrg not stated
T4 construct: also called nonproteolyzed HER3-ECD^I-IV

[8] = target: HER3^FL E64A (residues 20-1342 with a mutation of E64A), transiently expressed on COS 7 cells (human, UniProt P21860 20-1342); assay: specific binding of radio-iodinated hrg to COS 7 cells transiently expressing the HER3 construct
[9] = target: HER3^II-CTD (residues 184-1342), transiently expressed on COS 7 cells (human, UniProt P21860 184-1342); assay: as above
[10] = target: T4, HER3-ECD^I-IV, soluble extracellular …; assay: method not given; given as the reference for the SPR value of HER3-ECD^I-II (68 nM, trx-hrg immobilized); form of hrg not stated

Chain of HER3^I-II N44A (P21860 20-329 N44A): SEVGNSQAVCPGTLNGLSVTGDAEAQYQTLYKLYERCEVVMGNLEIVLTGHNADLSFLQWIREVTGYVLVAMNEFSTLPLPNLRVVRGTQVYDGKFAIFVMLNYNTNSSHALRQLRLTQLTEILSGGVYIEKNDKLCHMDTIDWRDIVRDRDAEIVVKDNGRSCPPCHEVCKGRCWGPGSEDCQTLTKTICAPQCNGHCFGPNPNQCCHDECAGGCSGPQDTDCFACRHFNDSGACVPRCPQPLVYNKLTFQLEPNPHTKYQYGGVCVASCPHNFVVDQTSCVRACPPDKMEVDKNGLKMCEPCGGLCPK
Chain of HER3^I-II V110A (P21860 20-329 V110A): as the sequence (P21860 20-329 N44A) above, with A25N, V91A counted along it
Chain of HER3^II-CTD (residues 184-1342), transiently expressed on COS 7 cells (P21860 184-1342 E560G/E1064G): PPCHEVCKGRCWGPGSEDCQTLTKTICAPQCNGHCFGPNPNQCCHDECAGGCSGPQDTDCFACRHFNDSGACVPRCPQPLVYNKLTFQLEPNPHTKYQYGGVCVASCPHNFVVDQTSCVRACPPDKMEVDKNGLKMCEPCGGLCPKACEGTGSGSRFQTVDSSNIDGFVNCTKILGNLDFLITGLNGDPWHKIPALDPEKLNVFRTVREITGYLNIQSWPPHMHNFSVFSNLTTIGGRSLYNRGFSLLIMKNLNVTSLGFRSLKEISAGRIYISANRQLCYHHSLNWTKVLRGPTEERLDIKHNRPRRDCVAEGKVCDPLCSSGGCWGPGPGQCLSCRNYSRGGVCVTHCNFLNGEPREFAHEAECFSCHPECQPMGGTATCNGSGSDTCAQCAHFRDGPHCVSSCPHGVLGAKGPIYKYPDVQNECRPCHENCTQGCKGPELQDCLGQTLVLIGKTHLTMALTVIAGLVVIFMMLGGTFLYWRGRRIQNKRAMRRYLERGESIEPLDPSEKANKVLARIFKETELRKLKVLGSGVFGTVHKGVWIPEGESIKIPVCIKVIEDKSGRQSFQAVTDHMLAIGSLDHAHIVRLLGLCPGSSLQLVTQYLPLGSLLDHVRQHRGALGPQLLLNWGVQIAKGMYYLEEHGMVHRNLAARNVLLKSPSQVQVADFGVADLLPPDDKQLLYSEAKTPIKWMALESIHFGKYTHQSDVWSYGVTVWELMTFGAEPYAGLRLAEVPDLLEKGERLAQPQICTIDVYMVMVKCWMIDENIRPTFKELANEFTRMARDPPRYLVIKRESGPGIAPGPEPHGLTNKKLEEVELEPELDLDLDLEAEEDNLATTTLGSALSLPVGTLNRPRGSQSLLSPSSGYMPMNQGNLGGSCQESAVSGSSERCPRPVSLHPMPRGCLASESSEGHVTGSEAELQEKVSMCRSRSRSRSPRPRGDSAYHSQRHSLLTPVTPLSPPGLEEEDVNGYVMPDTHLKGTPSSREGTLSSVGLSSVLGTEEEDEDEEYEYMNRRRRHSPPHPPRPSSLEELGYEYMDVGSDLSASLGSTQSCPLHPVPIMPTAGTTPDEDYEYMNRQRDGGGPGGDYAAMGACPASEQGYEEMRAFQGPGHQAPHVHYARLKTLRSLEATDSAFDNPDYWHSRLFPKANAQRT
T2 sequence (P21860 20-329 E43A): as the sequence (P21860 20-329 N44A) above, with E24A, A25N counted along it

Binder: B1
fold lower binding affinity than HER3-ECD^I-IV [1]: 30 fold

Binder: B2
fold decrease in binding affinity (against HER3^I-II) [2]: 1.5 fold

Binder: B3
Kd (HER3^I-II K51A): 63 nM
Kd (HER3^I-II V66A): 60.5 nM
Kd (HER3^I-II V110A): 15.4 nM
Kd (HER3^I-II E43A): 63 nM
Kd (HER3^I-II N44A): 95.5 nM
binding result (HER3^I-IV E64A [3]): no binding
Kd [4]: 68 nM
koff [4]: 0.00727 s⁻¹
kon [4]: 107000 M⁻¹ s⁻¹

Binder: B4
fold increase in binding affinity (against HER3^I-II) [2]: 4 fold
fold increase in binding affinity (against HER3^I-II) [5]: 5 fold

Binder: B5
binding result (HER3^I-IV E64A [6]): no binding (tested: 1:1 molar ratio)
Kd [7]: 1.9 nM
binding result [8]: no binding
binding result [9]: no binding
Kd [10]: 2.3 nM
